Reference: article PMC8233664, “CAR T cells targeting tumor-associated exons of glypican 2 regress neuroblastoma in mice” (Cell Reports Medicine, 2021)

Columns and labels:
[1] = target: T1, recombinant human GPC2 protein (Homo sapiens, UniProt Q8N158); assay: BLI; Octet RED96; His-tagged GPC2 immobilised on Ni-NTA biosensors; association 600 s, dissociation 1800 s; details: both partners purified
T1 construct: human glypican 2 (GPC2), recombinant protein from R&D Systems; also called human glypican 2; His-tagged GPC2 protein; source: bought: R&D Systems

[2] = target: T2, recombinant human GPC1 protein (Homo sapiens, UniProt P35052); assay: ELISA; plates coated with recombinant human GPC2, GPC1 and GPC3; mouse hybridoma supernatant containing 1 μg/ml of each mAb; detected with goat anti-mouse IgG-HRP; details: one partner purified
T2 construct: human glypican 1, recombinant protein from R&D Systems; source: bought: R&D Systems

[3] = target: T3, recombinant human GPC3 protein (Homo sapiens, UniProt P51654); assay: as above; details: one partner purified
T3 construct: human glypican 3, recombinant protein from R&D Systems; source: bought: R&D Systems

[4] = target: T4, recombinant human GPC4 protein (Homo sapiens, UniProt O75487); assay: ELISA; CT3 at 1 μg/ml on human GPC1 through GPC6 and mouse GPC2 proteins (R&D Systems) and GPC2 exon 3-hFc; detected with goat anti-mouse IgG-HRP; details: both partners purified
T4 construct: human glypican 4, recombinant protein from R&D Systems; source: bought: R&D Systems

[5] = target: T5, human GPC2 exon3-hFc protein (Homo sapiens); assay: as above; details: both partners purified
T5 construct: human glypican 2, the stretch encoded by exon 3 (of transcript GPC2-201); also called recombinant exon 3 fragment of GPC2; exon 3 of GPC2; source: cloned into the pVRC8400 expression plasmid
T5 chain: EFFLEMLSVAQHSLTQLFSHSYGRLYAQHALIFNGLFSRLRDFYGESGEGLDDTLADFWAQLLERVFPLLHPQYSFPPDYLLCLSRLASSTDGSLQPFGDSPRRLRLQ

[6] = target: T6, recombinant human GPC6 protein (Homo sapiens, UniProt Q9Y625); assay: as above; details: both partners purified
T6 construct: human glypican 6, recombinant protein from R&D Systems; source: bought: R&D Systems

[7] = target: T7, recombinant human GPC5 protein (Homo sapiens, UniProt P78333); assay: as above; details: both partners purified
T7 construct: human glypican 5, recombinant protein from R&D Systems; source: bought: R&D Systems

[8] = target: human GPC2 stably overexpressed on G10 (A431) and F8 (IMR5) cells (Homo sapiens, UniProt Q8N158); assay: cell-based or functional assay
[9] = target: cell surface GPC2 on neuroblastoma cells (Homo sapiens, UniProt Q8N158); assay: cell-based or functional assay
GPC2 exon 3 peptide 12 = target: T8, GPC2 exon 3 peptide 12 (Homo sapiens); assay: ELISA; single 18-residue peptides at 5 μg/ml in PBS coated overnight; 1 μg/ml CT3; detected with goat anti-mouse IgG-HRP; details: both partners purified
T8 construct: human glypican 2, 18-residue peptide no; 12 of the overlapping library (9 residues overlap), in exon 3; source: synthetic peptide (Genscript)
T8 chain: TQLFSHSYGRLYAQHALI

GPC2 exon 3 peptide 10 = target: T9, GPC2 exon 3 peptide 10 (Homo sapiens); assay: as above; details: both partners purified
T9 construct: human glypican 2, 18-residue peptide no; 10 of the overlapping library (9 residues overlap), in exon 3; source: synthetic peptide (Genscript)
T9 chain: RKFDEFFLEMLSVAQHSL

GPC2 exon 3 peptide 11 = target: T10, GPC2 exon 3 peptide 11 (Homo sapiens); assay: as above; details: both partners purified
T10 construct: human glypican 2, 18-residue peptide no; 11 of the overlapping library (9 residues overlap), in exon 3; source: synthetic peptide (Genscript)
T10 chain: MLSVAQHSLTQLFSHSYG

GPC2 exon 3 peptide 15 = target: T11, GPC2 exon 3 peptide 15 (Homo sapiens); assay: as above; details: both partners purified
T11 construct: human glypican 2, 18-residue peptide no; 15 of the overlapping library (9 residues overlap), in exon 3; source: synthetic peptide (Genscript)
T11 chain: DFYGESGEGLDDTLADFW

GPC2 exon 3 peptide 20 = target: T12, GPC2 exon 3 peptide 20 (Homo sapiens); assay: as above; details: both partners purified
T12 construct: human glypican 2, 18-residue peptide no; 20 of the overlapping library (9 residues overlap), in exon 3; source: synthetic peptide (Genscript)
T12 chain: LASSTDGSLQPFGDSPRR

GPC2 exon 3 peptide 14 = target: T13, GPC2 exon 3 peptide 14 (Homo sapiens); assay: as above; details: both partners purified
T13 construct: human glypican 2, 18-residue peptide no; 14 of the overlapping library (9 residues overlap), in exon 3; source: synthetic peptide (Genscript)
T13 chain: FNGLFSRLRDFYGESGEG

GPC2 exon 3 peptide 16 = target: T14, GPC2 exon 3 peptide 16 (Homo sapiens); assay: as above; details: both partners purified
T14 construct: human glypican 2, 18-residue peptide no; 16 of the overlapping library (9 residues overlap), in exon 3; source: synthetic peptide (Genscript)
T14 chain: LDDTLADFWAQLLERVFP

GPC2 exon 3 peptide 17 = target: T15, GPC2 exon 3 peptide 17 (Homo sapiens); assay: as above; details: both partners purified
T15 construct: human glypican 2, 18-residue peptide no; 17 of the overlapping library (9 residues overlap), in exon 3; source: synthetic peptide (Genscript)
T15 chain: AQLLERVFPLLHPQYSFP

GPC2 exon 3 peptide 21 = target: T16, GPC2 exon 3 peptide 21 (Homo sapiens); assay: as above; details: both partners purified
T16 construct: human glypican 2, 18-residue peptide no; 21 of the overlapping library (9 residues overlap), in exon 3; source: synthetic peptide (Genscript)
T16 chain: QPFGDSPRRLRLQITRTL

GPC2 exon 3 peptide 13 = target: T17, GPC2 exon 3 peptide 13 (Homo sapiens); assay: as above; details: both partners purified
T17 construct: human glypican 2, 18-residue peptide no; 13 of the overlapping library (9 residues overlap), in exon 3; source: synthetic peptide (Genscript)
T17 chain: RLYAQHALIFNGLFSRLR

GPC2 exon 3 peptide 19 = target: T18, GPC2 exon 3 peptide 19 (Homo sapiens); assay: as above; details: both partners purified
T18 construct: human glypican 2, 18-residue peptide no; 19 of the overlapping library (9 residues overlap), in exon 3; source: synthetic peptide (Genscript)
T18 chain: PDYLLCLSRLASSTDGSL

GPC2 exon 3 peptide 18 = target: T19, GPC2 exon 3 peptide 18 (Homo sapiens); assay: as above; details: both partners purified
T19 construct: human glypican 2, 18-residue peptide no; 18 of the overlapping library (9 residues overlap), in exon 3; source: synthetic peptide (Genscript)
T19 chain: LLHPQYSFPPDYLLCLSR

Sequence of cell surface GPC2 on neuroblastoma cells (Q8N158 24-554): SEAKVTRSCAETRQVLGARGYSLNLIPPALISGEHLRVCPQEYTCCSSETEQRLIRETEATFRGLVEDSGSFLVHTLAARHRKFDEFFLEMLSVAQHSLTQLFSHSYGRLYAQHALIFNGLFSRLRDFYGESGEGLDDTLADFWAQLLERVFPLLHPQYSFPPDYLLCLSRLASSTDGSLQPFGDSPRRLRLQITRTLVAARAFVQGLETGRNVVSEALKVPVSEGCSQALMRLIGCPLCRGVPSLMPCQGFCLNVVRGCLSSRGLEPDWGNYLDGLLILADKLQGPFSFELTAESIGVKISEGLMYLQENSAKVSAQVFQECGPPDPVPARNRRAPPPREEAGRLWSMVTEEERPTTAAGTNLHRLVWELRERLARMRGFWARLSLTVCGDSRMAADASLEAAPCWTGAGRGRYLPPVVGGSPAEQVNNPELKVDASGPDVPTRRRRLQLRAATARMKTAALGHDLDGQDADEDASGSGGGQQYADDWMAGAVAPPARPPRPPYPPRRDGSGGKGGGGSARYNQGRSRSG
T3 sequence (P51654 25-580): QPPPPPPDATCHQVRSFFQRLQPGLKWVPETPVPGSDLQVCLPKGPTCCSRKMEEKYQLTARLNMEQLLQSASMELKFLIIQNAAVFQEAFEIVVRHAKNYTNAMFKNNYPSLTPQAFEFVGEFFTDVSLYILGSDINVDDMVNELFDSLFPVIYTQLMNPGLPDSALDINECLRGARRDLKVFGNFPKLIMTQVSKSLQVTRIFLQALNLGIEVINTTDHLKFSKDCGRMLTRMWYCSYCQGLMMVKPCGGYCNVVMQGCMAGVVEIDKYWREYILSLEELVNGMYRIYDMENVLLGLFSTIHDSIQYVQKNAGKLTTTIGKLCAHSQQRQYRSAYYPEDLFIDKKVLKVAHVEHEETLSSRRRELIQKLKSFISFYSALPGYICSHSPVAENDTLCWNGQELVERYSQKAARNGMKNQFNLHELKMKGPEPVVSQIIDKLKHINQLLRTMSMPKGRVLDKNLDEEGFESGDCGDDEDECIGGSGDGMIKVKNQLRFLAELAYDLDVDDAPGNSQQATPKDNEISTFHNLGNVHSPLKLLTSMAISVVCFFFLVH
T7 sequence (P78333 25-572): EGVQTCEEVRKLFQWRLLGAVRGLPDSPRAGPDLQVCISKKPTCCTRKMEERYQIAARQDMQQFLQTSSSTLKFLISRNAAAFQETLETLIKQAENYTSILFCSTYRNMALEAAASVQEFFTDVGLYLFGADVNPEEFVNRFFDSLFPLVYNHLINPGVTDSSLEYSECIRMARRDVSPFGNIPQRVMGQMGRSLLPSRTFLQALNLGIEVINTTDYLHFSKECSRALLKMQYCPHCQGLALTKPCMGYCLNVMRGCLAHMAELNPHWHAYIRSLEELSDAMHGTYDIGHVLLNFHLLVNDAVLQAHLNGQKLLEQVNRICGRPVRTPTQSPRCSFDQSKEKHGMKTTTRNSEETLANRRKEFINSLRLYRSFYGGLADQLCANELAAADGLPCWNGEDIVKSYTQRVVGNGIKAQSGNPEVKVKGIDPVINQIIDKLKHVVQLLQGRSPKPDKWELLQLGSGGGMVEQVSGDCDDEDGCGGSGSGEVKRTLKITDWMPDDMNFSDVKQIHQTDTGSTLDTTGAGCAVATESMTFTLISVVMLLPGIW
T4 sequence (O75487 19-529): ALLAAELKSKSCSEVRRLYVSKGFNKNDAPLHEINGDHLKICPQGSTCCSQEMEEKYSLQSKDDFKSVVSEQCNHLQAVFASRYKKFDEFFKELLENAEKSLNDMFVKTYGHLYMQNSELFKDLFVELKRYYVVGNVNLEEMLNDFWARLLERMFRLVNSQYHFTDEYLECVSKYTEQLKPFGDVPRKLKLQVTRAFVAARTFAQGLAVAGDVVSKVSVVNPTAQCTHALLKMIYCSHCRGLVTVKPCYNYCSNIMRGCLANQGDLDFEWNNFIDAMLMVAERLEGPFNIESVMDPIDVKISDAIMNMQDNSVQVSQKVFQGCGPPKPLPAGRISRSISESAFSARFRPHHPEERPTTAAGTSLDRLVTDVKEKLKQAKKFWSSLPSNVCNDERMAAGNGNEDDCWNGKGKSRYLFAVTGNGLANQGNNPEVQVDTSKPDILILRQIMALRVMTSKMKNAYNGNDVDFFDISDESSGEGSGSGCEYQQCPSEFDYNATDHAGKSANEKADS
T2 sequence (P35052 24-530): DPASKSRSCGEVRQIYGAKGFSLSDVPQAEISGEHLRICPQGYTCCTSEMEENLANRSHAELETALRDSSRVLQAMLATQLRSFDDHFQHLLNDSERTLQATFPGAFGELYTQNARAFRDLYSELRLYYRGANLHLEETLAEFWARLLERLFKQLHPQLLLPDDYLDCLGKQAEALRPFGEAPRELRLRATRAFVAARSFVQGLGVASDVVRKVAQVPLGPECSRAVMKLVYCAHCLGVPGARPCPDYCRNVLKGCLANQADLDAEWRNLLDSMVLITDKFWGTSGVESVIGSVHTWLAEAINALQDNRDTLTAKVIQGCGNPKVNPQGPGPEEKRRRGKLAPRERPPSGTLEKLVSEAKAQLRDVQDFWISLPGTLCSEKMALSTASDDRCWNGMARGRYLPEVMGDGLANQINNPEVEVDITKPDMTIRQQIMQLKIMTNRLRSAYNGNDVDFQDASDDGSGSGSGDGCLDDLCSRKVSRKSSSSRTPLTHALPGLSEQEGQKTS
T6 sequence (Q9Y625 24-529): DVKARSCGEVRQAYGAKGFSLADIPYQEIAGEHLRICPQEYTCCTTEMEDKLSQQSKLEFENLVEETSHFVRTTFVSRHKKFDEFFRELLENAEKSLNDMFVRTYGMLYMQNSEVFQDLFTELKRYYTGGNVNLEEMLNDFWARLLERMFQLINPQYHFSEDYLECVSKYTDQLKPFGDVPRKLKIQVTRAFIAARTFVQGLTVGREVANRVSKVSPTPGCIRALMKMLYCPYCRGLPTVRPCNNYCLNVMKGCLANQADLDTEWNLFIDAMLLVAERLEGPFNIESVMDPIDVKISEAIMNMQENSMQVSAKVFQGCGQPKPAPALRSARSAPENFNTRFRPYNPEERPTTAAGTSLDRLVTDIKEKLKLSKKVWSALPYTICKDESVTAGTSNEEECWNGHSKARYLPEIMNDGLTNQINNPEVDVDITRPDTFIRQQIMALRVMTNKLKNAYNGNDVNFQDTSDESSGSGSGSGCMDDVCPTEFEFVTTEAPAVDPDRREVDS
Sequence of human GPC2 stably overexpressed on G10 (A431) and F8 (IMR5) cells (Q8N158 24-554): as the sequence (Q8N158 24-554) above
T1 sequence (Q8N158 24-554): as above

Kd [1]: 0.5 nM
binding result [2]: no binding (tested: 1 μg/ml of each mAb)
binding result [3]: no binding (tested: 1 μg/ml of each mAb)
binding result [4]: no binding (tested: 1 μg/mL of CT3)
binding result [5]: binds
binding result [6]: no binding (tested: 1 μg/mL of CT3)
binding result [7]: no binding (tested: 1 μg/mL of CT3)
binding result (GPC2 exon 3 peptide 12): no binding (tested: 1 μg/ml of CT3)
binding result (GPC2 exon 3 peptide 10): no binding (tested: 1 μg/ml of CT3)
binding result (GPC2 exon 3 peptide 11): no binding (tested: 1 μg/ml of CT3)
binding result (GPC2 exon 3 peptide 15): no binding (tested: 1 μg/ml of CT3)
binding result (GPC2 exon 3 peptide 20): no binding (tested: 1 μg/ml of CT3)
binding result (GPC2 exon 3 peptide 14): no binding (tested: 1 μg/ml of CT3)
binding result (GPC2 exon 3 peptide 16): no binding (tested: 1 μg/ml of CT3)
binding result (GPC2 exon 3 peptide 17): no binding (tested: 1 μg/ml of CT3)
binding result (GPC2 exon 3 peptide 21): no binding (tested: 1 μg/ml of CT3)
binding result (GPC2 exon 3 peptide 13): no binding (tested: 1 μg/ml of CT3)
binding result (GPC2 exon 3 peptide 19): no binding (tested: 1 μg/ml of CT3)
binding result (GPC2 exon 3 peptide 18): no binding (tested: 1 μg/ml of CT3)
B1: CT3 monoclonal antibody (antibody, V domains shown)
VH: EVQLQQSGPELVKPGASVKMSCKASRFTFTDYNIHWVKQSPGKTLEWIGYINPNNGDIFYKQKFNGKATLTINKSSNTAYMELRSLTSEDSAVYYCVRSSNIRYTFDRFFDVWGTGTTVTVSS
VL: ENVLTQSPAIMSASLGEKVTMSCRASSSVNYIYWYQQKSDASPKLWIYYTSNLAPGVPARFSGSGSGNSYSLTISSMEGEDAATYYCQQFSSSPSTFGTGTKLELK
notes: variable regions were cloned by 5'RACE; EM maps of the CT3 Fab/GPC2 complex deposited at wwPDB (deposition ID D_1000256119); Mouse mAb raised against the 50-residue C-terminal (exon 10) peptide of GPC2; also called CT3 mAb; source: mouse hybridoma (parental clone 2); hybridoma supernatant and purified mAb
lysis of G10 and F8 cells (high GPC2) by CT3 CAR T cells (CT3 as scFv in a 4-1BB CAR), luciferase-based killing assay, 24 h, E:T ratio 3:1 [8]: ~70%
cytotoxicity of CT3 CAR T cells (CT3 as scFv in a CAR with CD8α hinge) on NBEB cells, xCELLigence real-time analysis, E:T ratio 1:1, 25 h [9]: 74%
cytotoxicity of CT3 CAR T cells (CT3 as scFv in a CAR with CD8α hinge) on SKNAS cells, xCELLigence real-time analysis, E:T ratio 1:1, 25 h [9]: 43%
lysis of NB PDX-derived cells by CT3 CAR T cells (CT3 as scFv in a 4-1BB CAR), luciferase-based killing assay, E:T ratio 25:1, 24 to 72 h of co-culture [9]: 80%
